Read-outs that look alike come from different tables or passages of the source. Non-standard residues stand in square brackets, D forms with d. No end group written: not given here.
Experiments:
human NMUR2 [1] = molecular target: T1, human NMUR2 (human, UniProt Q9GZQ4 1-415); assay: 125I-hNMU-25 displacement, HEK cell membranes
Protocol: (§1) Confluent cell monolayers expressing NMU receptors (the HEK cells described above) were harvested with phosphate buffered saline, collected by centrifugation, and resuspended in membrane buffer (50 mM TrisCl pH 7.4, 5 mM MgCl₂, 1× Protease Inhibitor Cocktail, 10 μM phosphoramidon). After the cell pellet was homogenized, the solution was centrifuged at 18,000 rpm for 20 minutes at 4° C. The pellet was resuspended in membrane buffer to yield a final concentration of 0.5-5 μg/μL of membrane and stored at −80° C.
(§2) Experiments were performed in assay buffer (25 mM TrisCl, pH 7.4, 10 mM MgCl₂, 2mM EDTA, 1× Protease Inhibitor Cocktail, 100 μg/mL Bacitricin, 10 μM phosphoramidon) in 200 μL volumes in a 96-well format using 2-5 μg of membrane and […] ¹²⁵I-hNMU-25 (about 12,000 cpm/well). For non-specific binding, 1 μM hNMU-25 was added. About 5 μL of peptides were added to measure antagonist activity, and the entire reaction was incubated at room temperature with shaking for 80 minutes. The reaction was terminated by rapid filtration through 0.3% poly-ethylenimine presoaked Millipore 96-well filter plates and washed with ice-cold buffer (5 mM TrisCl pH 7.4, 10 mM MgCl₂, 2.5 mM EDTA, 0.04% Triton X-100). Plates were air-dried overnight at room temperature and recovered radioactivity was determined by standard scintillation counting. IC₅₀ values were determined using GraphPad Prism software.
(§3) Concentration-response curves and radioligand-binding data were fitted using Prism (GraphPad Software). Results are summarized below in Tables 8 and 9.

human NMUR1 [2] = molecular target: T2, human NMUR1 (human, UniProt Q9HB89 1-426); assay: 125I-hNMU-25 displacement, HEK cell membranes
T2 sequence (looked up): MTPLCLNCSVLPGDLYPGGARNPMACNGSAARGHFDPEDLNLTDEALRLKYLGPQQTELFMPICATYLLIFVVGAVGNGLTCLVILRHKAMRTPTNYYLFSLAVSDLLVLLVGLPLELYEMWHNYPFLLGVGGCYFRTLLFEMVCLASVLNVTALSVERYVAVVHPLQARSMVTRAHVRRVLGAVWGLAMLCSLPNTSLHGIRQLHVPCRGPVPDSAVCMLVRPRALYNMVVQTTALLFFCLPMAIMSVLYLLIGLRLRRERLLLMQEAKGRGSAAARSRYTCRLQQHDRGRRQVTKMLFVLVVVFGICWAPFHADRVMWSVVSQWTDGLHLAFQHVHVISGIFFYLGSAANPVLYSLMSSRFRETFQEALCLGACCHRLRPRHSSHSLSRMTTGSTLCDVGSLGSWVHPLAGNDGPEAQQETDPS
Protocol: as §1, §2, §3

human NMUR2 [3] = molecular target: T1, human NMUR2; assay: cell-based or functional assay
human NMUR1 [4] = molecular target: T2, human NMUR1; assay: cell-based or functional assay
mouse NMUR1-CTG [5] = molecular target: T3, mouse NMUR1-CTG (mouse, UniProt O55040 1-428); assay: cell-based or functional assay
T3 sequence (looked up): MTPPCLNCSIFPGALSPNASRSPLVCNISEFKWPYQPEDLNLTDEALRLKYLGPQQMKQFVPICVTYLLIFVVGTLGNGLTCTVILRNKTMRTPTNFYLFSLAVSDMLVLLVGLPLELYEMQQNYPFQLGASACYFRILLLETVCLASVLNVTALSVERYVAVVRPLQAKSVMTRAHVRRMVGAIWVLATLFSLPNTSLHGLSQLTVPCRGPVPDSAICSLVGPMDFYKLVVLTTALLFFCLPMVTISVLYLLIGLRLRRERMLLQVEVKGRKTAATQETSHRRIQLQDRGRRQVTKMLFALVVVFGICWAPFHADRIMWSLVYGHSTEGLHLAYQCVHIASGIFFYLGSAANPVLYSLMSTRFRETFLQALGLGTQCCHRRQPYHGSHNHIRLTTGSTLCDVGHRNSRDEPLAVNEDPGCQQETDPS

rat NMUR2 [6] = molecular target: T4, rat NMUR2 (rat, UniProt Q9ESQ4 1-395); assay: cell-based or functional assay
T4 sequence (Q9ESQ4 whole entry): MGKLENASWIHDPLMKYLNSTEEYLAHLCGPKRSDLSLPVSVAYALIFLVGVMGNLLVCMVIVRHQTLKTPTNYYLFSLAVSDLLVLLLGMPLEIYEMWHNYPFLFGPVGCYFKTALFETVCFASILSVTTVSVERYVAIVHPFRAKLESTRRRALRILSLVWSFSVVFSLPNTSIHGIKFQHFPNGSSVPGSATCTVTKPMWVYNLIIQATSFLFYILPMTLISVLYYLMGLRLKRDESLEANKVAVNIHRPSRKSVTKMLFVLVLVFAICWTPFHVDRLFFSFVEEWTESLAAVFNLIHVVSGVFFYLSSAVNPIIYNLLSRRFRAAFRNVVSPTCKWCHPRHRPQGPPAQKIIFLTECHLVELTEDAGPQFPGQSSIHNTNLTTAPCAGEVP

mouse NMUR2 [7] = molecular target: T5, mouse NMUR2 (mouse, UniProt Q8BZ39 1-395); assay: cell-based or functional assay
T5 sequence (Q8BZ39 whole entry): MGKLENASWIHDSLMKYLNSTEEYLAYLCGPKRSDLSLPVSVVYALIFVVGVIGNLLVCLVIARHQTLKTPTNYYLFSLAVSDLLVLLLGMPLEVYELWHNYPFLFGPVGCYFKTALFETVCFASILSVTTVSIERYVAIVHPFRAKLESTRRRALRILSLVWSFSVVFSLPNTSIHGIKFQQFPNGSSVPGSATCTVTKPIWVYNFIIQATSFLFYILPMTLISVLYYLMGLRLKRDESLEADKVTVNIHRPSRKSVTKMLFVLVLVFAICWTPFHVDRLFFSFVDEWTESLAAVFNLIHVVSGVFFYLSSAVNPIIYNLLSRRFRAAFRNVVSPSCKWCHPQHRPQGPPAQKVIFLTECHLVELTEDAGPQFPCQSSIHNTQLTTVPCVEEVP

rat NMUR1-ATG [8] = molecular target: T6, rat NMUR1-ATG (rat, UniProt Q9JJI5 1-425); assay: cell-based or functional assay
T6 sequence (looked up): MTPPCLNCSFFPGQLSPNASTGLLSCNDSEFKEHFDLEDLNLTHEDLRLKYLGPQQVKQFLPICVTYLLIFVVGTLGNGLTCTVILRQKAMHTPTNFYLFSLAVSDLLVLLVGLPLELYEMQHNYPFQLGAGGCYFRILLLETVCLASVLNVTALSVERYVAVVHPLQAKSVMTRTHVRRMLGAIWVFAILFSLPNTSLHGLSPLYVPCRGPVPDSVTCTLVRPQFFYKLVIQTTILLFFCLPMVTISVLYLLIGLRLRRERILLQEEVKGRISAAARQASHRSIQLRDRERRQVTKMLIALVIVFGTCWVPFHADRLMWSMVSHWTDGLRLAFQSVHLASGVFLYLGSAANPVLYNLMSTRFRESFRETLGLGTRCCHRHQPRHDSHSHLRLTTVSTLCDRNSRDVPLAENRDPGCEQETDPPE

mouse NMUR1-ATG [9] = molecular target: T7, mouse NMUR1-ATG (mouse, UniProt O55040 1-428); assay: cell-based or functional assay
T7 sequence (looked up): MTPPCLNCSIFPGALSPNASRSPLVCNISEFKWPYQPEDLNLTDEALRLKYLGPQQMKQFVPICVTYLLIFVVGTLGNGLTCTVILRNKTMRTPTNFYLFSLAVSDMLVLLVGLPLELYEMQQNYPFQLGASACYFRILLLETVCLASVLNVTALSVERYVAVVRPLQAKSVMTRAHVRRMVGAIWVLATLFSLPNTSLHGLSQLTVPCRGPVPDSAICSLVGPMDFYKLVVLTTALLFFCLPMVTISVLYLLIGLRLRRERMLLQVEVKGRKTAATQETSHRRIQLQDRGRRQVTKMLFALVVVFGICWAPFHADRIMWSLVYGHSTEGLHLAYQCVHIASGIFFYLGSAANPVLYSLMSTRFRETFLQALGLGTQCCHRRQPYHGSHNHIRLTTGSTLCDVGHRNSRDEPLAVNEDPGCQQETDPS

rat NMUR1-TTG [10] = molecular target: T8, rat NMUR1-TTG (rat, UniProt Q9JJI5 1-425); assay: cell-based or functional assay
T8 sequence (looked up): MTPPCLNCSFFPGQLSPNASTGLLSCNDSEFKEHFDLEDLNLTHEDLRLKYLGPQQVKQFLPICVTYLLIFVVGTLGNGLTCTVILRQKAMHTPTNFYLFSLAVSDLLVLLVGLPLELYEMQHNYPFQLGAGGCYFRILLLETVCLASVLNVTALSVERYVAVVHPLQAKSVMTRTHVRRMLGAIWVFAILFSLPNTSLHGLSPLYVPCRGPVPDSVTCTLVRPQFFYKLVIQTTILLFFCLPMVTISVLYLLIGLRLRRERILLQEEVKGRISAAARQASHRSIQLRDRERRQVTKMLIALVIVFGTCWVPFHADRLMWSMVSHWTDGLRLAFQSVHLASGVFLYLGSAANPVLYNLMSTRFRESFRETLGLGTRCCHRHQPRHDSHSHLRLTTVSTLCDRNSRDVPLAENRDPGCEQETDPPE

human NMUR2 [11] = molecular target: T1, human NMUR2; assay: cell-based or functional assay; remark: listed apart in the source
human NMUR1 [12] = molecular target: T2, human NMUR1; assay: cell-based or functional assay; remark: listed apart in the source
mouse NMUR1-CTG [13] = molecular target: T3, mouse NMUR1-CTG; assay: 125I-hNMU-25 displacement, cell membranes
rat NMUR2 [14] = molecular target: T4, rat NMUR2; assay: 125I-hNMU-25 displacement, cell membranes
mouse NMUR2 [15] = molecular target: T5, mouse NMUR2; assay: 125I-hNMU-25 displacement, cell membranes
rat NMUR1-ATG [16] = molecular target: T6, rat NMUR1-ATG; assay: 125I-hNMU-25 displacement, cell membranes
mouse NMUR1-ATG [17] = molecular target: T7, mouse NMUR1-ATG; assay: 125I-hNMU-25 displacement, cell membranes
rat NMUR1-TTG [18] = molecular target: T8, rat NMUR1-TTG; assay: 125I-hNMU-25 displacement, cell membranes
human NMUR2 [19] = molecular target: T1, human NMUR2; assay: 125I-hNMU-25 displacement, cell membranes
human NMUR1 [20] = molecular target: T2, human NMUR1; assay: 125I-hNMU-25 displacement, cell membranes
human NMUR2 [21] = molecular target: T1, human NMUR2; assay: cell-based or functional assay; remark: listed apart in the source
human NMUR1 [22] = molecular target: T2, human NMUR1; assay: cell-based or functional assay; remark: listed apart in the source
[23] = molecular target: T9, human NMUR1 (human), Q9HB89; assay: 125I-hNMU-25 displacement, HEK cell membranes; details: remark: other sources report otherwise
T9 chain: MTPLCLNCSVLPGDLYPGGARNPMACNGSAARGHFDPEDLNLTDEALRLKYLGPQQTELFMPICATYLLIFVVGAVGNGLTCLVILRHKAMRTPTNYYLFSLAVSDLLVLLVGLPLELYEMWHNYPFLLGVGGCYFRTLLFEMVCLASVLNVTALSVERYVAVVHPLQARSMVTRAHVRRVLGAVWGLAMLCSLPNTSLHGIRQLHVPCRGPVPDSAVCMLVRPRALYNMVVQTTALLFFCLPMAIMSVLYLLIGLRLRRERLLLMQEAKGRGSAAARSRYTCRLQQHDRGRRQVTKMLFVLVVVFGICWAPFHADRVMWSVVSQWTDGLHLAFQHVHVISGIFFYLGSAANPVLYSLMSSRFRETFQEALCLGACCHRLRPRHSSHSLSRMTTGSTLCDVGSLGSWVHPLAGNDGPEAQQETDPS

T1 sequence (Q9GZQ4 whole entry): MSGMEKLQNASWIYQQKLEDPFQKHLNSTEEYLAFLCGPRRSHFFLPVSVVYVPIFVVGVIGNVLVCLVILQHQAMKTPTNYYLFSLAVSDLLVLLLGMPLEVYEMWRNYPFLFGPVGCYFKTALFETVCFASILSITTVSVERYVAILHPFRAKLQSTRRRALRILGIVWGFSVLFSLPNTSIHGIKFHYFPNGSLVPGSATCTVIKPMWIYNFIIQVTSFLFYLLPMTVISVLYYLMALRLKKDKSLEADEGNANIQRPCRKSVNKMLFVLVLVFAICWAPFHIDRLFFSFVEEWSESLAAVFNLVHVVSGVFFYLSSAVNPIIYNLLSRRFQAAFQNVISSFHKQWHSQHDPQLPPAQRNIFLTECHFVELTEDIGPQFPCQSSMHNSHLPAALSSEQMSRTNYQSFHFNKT

FRVDEEFQSPFASQSRGYF[dL]WRPRN-NH2 (not fully specified) [neuromedin U receptor agonist H] gave a % activity (binding) (human NMUR2 [1]) of 7%, an IC50 (human NMUR2 [1]) of 780 nM and a % activity (binding) (human NMUR1 [2]) of 93%. The IC50 (human NMUR1 [2]) was 1.1 nM, the IC50 (nM), functional (human NMUR2 [3]) was over 1000 nM and the % activity (human NMUR1 [4]) was 88%. For the same binder, the IC50 (nM), functional (human NMUR1 [4]) was 19 nM, the % activity (mouse NMUR1-CTG [5]) was 77% and the IC50 (nM), functional (mouse NMUR1-CTG [5]) was 66 nM. It also gave a % activity (rat NMUR2 [6]) of 42%, an IC50 (nM), functional (rat NMUR2 [6]) of over 1000 nM and a % activity (mouse NMUR2 [7]) of 40%. For the same binder, the IC50 (nM), functional (mouse NMUR2 [7]) was over 1000 nM, the % activity (rat NMUR1-ATG [8]) was 95% and the IC50 (nM), functional (rat NMUR1-ATG [8]) was 31.1 nM. For the same binder, the % activity (mouse NMUR1-ATG [9]) was 90%, the IC50 (nM), functional (mouse NMUR1-ATG [9]) was 25 nM and the % activity (rat NMUR1-TTG [10]) was 91%. For the same binder, the IC50 (nM), functional (rat NMUR1-TTG [10]) was 153 nM, the % activity (human NMUR2 [11]) was 0% and the IC50 (nM), functional (human NMUR2 [11]) was over 1000 nM. It also gave a % activity (human NMUR1 [12]) of 90%, an IC50 (nM), functional (human NMUR1 [12]) of 1.25 nM and a % inhibition of NMU-25 binding (mouse NMUR1-CTG [13]) of 83%. It also gave an IC50 (mouse NMUR1-CTG [13]) of 25 nM, a % inhibition of NMU-25 binding (rat NMUR2 [14]) of 0% and a % inhibition of NMU-25 binding (mouse NMUR2 [15]) of 20%. It also gave a % inhibition of NMU-25 binding (rat NMUR1-ATG [16]) of 100%, an IC50 (rat NMUR1-ATG [16]) of 15.9 nM and a % inhibition of NMU-25 binding (mouse NMUR1-ATG [17]) of 77%. For the same binder, the IC50 (mouse NMUR1-ATG [17]) was 66 nM, the % inhibition of NMU-25 binding (rat NMUR1-TTG [18]) was 100% and the IC50 (rat NMUR1-TTG [18]) was 11 nM. It also gave a % inhibition of NMU-25 binding (human NMUR2 [19]) of 7%, an IC50 (human NMUR2 [19]) of 782 nM and a % inhibition of NMU-25 binding (human NMUR1 [20]) of 93%. It also gave an IC50 (human NMUR1 [20]) of 1.1 nM.

In the case of FWLFRARN-NH2 [neuromedin U receptor agonist L], the “% activity (binding)” value (human NMUR2 [1]) is reported as 100%, the IC50 (human NMUR2 [1]) is reported as 37 nM and the “% activity” value (human NMUR2 [21]) is reported as 100%. The “EC50” value (human NMUR2 [21]) was 6.2 nM, the “% activity” value (human NMUR1 [22]) was 74% and the “EC50” value (human NMUR1 [22]) was over 1000 nM. For the same binder, the % activity (binding) [23] was 0%.

From US20070244048A1 (published 2007)
